# According to article PMC3907034:
# Molecular target: HIV-1 P7L-S40A-Gag, full-length (HIV-1)
# Test: two-hybrid; Matchmaker GAL4 system, S. cerevisiae Y190, quantitative liquid beta-galactosidase assay; units normalized to P7L with Alix (panel B) or WT Gag with Alix (panel C)
substance,measurement,value
full-length Alix (from UniProt Q8WUM4 1-868) (natural protein),fold increase of binding (beta-galactosidase units) against P7L-Gag with Alix,7 fold
